Data: publication PMC10113246, “Disease-related p63 DBD mutations impair DNA binding by distinct mechanisms and varying degree”

T1: ΔNp63α R227Q (UniProt Q9H3D4-2 1-586, R172Q)
T1 sequence: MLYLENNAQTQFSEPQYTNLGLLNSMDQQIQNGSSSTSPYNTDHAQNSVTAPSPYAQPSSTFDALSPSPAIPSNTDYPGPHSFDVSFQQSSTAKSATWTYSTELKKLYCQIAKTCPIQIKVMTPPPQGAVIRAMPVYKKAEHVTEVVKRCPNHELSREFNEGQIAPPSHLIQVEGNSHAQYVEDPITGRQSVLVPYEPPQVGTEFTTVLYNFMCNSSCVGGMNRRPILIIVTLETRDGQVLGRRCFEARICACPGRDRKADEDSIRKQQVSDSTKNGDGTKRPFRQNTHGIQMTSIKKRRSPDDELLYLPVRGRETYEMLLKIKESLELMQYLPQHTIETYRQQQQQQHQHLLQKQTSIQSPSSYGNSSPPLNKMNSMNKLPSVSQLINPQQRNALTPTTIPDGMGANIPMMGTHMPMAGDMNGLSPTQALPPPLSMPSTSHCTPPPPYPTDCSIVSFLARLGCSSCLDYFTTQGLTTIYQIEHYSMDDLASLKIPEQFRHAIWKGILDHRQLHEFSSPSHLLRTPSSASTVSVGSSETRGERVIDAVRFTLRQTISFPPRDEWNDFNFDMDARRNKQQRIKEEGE

B1: p21 RE (pulldown) (dsDNA)
DNA 1: GCCAGGAACATGTCCCAACATGTTGAGCCG
DNA 2: CGGCTCAACATGTTGGGACATGTTCCTGGC
B2: KRT14 RE (pulldown) (dsDNA)
DNA 1: AAAATATGACAGACATGATGAGGCGGATGA
DNA 2: TCATCCGCCTCATCATGTCTGTCATATTTT

Target: T1, ΔNp63α R227Q
Test: pull-down; not significantly different from WT; SPR DBD-TD: 25 mM HEPES pH 7.5, 200 mM NaCl, 0.5 mM TCEP, 0.005% Tween-20; SPR DBD: 10 mM HEPES pH 7.5, 150 mM NaCl, 0.2 mM TCEP, 0.005% Tween-20; random-sequence dsDNA (S12/S13) as reference cell; pull-down: 50 mM Tris pH 8.0, 150 mM NaCl, 0.1% Tween-20, 4 °C
Conditions: protein: ivt, tags: Myc, chain copies: 4, blunt

Binder | binding result (label: 5' biotin on S8) | binding result (label: 5' biotin on S10)
B1 | binds | 
B2 |  | binds
